Patent publication WO2013087874A1 (dated 2013)

B1: VHH L-15a (#2169, SEQ ID NO:3) (VHH)
VHH: DVQLQESGGGLVQAGGSLRLSCAASRSLRSIAVMGWFRQAPGKQREYVARITSGGYTDYADSVKGRFTIFDDSANNTVYLQMTSLKPEDTAVYHCAAGGFTEAYSGTYYPDSWGQGTQVTVSS
B2: VHH L-14 (#2622, SEQ ID NO:2) (VHH)
VHH: DVQLQASGGGLVPAGGSLRLSCAASGHSFSSLDMAWFRQAPGREREFVAQISWSGSHTYYQDAVKGRFTISRDSAKNTGYLQMTNLKPEDTAVYYCAATYRPNTFTPAEYDYWGQGTQVTVSA
B3: VHH L+18a (#2173, SEQ ID NO:5) (VHH)
VHH: DVQLQASGGGLVQAGGSMRLSCAASGFTFDEFAIGWFRQAPGKEREAVSCIRSSDGSTWYADSVKGRFTISSDNAKNTVTLRMNSLKPEDTADYTCAALGSGYGCSLFTTTVGMDYWGKGTLVTVSS
B4: VHH S-20a (#2352, SEQ ID NO:11) (VHH)
VHH: DVQLQASGGGLVQAGDSLRLSCSASGLTFSSYAMGWFRQAPGKEREFVAAISWANGGSTVYADPVKGRFTISRDNAKNTVYLQMNSLKPEDTAVYSCAAADQRVGYIEYYSGSSGKEYDYWGQGTQVTVSS

The binders below were run against T1, ToxA-Holotoxin of Clostridium difficile (Clostridium difficile, UniProt P16154 1-2710) (assay: ELISA, monovalent VHH on coated antigen, anti-myc detection).
T1 construct: also called Toxin A
T1 sequence (P16154 whole entry): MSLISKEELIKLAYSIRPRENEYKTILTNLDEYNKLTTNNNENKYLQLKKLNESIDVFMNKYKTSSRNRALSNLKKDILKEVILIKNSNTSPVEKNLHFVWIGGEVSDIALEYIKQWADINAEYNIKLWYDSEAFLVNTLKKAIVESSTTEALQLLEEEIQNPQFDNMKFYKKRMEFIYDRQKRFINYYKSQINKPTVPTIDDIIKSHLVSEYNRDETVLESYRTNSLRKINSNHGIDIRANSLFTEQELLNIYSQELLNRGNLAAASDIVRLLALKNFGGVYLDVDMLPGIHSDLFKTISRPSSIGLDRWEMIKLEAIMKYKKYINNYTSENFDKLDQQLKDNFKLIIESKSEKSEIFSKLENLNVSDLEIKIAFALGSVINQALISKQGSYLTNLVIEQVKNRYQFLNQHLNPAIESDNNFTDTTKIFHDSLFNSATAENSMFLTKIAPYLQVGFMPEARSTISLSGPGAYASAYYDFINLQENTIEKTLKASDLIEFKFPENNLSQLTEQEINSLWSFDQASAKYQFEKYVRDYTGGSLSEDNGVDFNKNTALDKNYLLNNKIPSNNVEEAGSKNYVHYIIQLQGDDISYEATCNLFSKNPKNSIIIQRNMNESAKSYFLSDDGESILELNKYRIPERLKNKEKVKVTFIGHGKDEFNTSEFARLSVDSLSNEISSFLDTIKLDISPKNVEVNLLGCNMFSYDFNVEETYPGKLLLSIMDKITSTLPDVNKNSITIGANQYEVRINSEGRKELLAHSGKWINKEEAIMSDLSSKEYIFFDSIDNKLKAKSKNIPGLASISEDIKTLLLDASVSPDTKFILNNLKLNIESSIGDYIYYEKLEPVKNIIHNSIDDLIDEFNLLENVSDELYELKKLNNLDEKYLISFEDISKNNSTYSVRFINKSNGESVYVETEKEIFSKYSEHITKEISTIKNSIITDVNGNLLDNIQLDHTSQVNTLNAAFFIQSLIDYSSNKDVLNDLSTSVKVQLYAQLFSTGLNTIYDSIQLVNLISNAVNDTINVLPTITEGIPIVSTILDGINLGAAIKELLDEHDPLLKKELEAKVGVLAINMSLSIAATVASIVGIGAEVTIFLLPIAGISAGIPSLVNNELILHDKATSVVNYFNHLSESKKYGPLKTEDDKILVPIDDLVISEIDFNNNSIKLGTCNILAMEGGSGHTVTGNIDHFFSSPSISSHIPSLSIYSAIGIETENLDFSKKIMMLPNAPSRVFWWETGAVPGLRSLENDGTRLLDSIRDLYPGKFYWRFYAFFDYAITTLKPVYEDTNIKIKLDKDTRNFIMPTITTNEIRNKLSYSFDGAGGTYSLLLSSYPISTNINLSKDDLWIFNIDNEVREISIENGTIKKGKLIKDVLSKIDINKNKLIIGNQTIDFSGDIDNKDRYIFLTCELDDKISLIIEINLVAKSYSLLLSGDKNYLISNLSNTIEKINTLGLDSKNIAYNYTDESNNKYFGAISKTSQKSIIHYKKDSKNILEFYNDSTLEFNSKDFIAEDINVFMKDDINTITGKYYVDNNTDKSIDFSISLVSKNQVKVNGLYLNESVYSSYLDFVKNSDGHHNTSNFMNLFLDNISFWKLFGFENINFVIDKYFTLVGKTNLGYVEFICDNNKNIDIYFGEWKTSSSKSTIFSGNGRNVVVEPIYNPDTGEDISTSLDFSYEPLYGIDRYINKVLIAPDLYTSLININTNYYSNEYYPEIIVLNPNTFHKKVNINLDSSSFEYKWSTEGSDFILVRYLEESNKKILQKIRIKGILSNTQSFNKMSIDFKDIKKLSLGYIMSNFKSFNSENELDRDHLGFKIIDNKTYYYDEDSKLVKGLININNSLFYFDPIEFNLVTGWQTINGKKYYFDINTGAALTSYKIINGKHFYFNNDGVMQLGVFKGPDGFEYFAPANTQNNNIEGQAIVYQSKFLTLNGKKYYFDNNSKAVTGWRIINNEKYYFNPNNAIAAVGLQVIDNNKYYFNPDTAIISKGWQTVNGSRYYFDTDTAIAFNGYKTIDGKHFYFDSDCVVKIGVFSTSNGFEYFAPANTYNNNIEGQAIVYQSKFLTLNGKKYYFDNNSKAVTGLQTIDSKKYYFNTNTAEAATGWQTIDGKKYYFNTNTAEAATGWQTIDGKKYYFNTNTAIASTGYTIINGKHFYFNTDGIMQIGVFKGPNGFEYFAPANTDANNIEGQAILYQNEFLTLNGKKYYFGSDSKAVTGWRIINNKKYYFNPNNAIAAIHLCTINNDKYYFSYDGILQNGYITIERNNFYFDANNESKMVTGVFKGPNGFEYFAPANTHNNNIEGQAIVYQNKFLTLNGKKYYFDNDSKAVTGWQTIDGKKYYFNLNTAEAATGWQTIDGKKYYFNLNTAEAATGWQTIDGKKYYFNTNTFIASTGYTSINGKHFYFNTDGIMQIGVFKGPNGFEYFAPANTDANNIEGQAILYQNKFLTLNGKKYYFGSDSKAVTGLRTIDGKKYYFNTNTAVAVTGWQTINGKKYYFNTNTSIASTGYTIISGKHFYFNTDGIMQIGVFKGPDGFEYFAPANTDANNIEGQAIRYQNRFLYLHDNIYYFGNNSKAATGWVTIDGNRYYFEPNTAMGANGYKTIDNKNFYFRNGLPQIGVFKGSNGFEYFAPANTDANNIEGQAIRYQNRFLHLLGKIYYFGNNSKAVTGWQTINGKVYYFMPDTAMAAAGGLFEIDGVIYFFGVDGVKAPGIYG
B1: no binding (tested: 8-1000 ng VHH). B2: no binding (tested: 8-1000 ng VHH). B3: no binding (tested: 8-1000 ng VHH). B4: no binding (tested: 8-1000 ng VHH).
